# Source: patent publication US20070071744A1 (published 2007)
# Ends that are not written are not given here.
# B1: monoclonal antibody hGP 5C4 (antibody, V domains shown)
# VH: EVKLQESGGGLVQPGRSLKLSCTASGFTFSDYFMSWVRQAPTRGLEWVASISSGGASAYWRDSVKGRFTISRDNAKSALYLQMDSLRSEDTATYFCARGELDFDYWGQGVMVAVSS
# VL: ADPNSTLLSASVGDRVTLNCTASQNVYKNLAWYQQKLGEAPRLLLYSANSQTGIPSRFSGSGSGPDFTLTISSLQPEDVASYFCQQYYSGNTFGAGTKLELKR
# notes: Rat hybridoma antibody (Lou/C rats), heavy chain gamma 2a, light chain kappa; also called ab 5C4; anti-GPVI mAb 5C4
# Columns and labels:
# Test in all cases: PepSpot peptide array
# peptide 101 = target: T1, peptide 101 (human)
# T1 peptide: Ac-VVTGTSVTPSRLP
# Procedure: (§1) The peptides were synthesized on a cellulose membrane in a stepwise manner resulting in a defined arrangement (peptide array) and are covalently bound to the cellulose membrane. Binding assays were performed directly on the peptide array. In general an antigen peptide array is incubated with blocking buffer for several hours to reduce non-specific binding of proteins or antibodies. It follows the incubation with a primary (antigen peptide-binding) antibody in blocking buffer and an incubation with a horseradish peroxidase (HRP)-labelled secondary antibody, which binds selectively the primary antibody. Alternatively a HRP-labelled primary antibody in blocking buffer can be used.
# (§2) A short T(Tween)-TBS-buffer washing directly after the incubation of the antigen peptide array with the secondary protein or antibody or the HRP-labelled primary antibody followed by the first chemiluminescence experiment is made to get an first overview which antigen peptides do bind the primary antibody. Several buffer washing steps follow (T-TBS- and TBS-buffer) to reduce false positive binding (unspecific antibody binding to the cellulose membrane itself). After these washing steps the final chemiluminescence analysis is performed. The data were analysed with an imaging system showing the signal intensity (Light units, LU) as single measurements for each peptide. In order to evaluate non-specific binding of secondary antibodies, incubations using the secondary antibody have to be performed in the absence of the primary antibody as control incubation.
# peptide 78 = target: T2, peptide 78 (human)
# T2 peptide: Ac-KNPERWYRASFPI
# Procedure: as §1, §2
# peptide 30 = target: T3, peptide 30 (human)
# T3 peptide: Ac-LEKLSSSRYQDQA
# Procedure: as §1, §2
# peptide 108 = target: T4, peptide 108 (human)
# T4 peptide: Ac-EPPSSVAEFSEAT
# Procedure: as §1, §2
# peptide 122 = target: T5, peptide 122 (human)
# T5 peptide: Ac-TSRSITTSPKESD
# Procedure: as §1, §2
# peptide 56 = target: T6, peptide 56 (human)
# T6 peptide: Ac-FAKPSLSAQPGPA
# Procedure: as §1, §2
# peptide 83 = target: T7, peptide 83 (human)
# T7 peptide: Ac-FPIITVTAAHSGT
# Procedure: as §1, §2
# peptide 99 = target: T8, peptide 99 (human)
# T8 peptide: Ac-PLELVVTGTSVTP
# Procedure: as §1, §2
# peptide 114 = target: T9, peptide 114 (human)
# T9 peptide: Ac-TAELTVSFTNKVF
# Procedure: as §1, §2
# peptide 25 = target: T10, peptide 25 (human)
# T10 peptide: Ac-QGPPGVDLYRLEK
# Procedure: as §1, §2
# peptide 38 = target: T11, peptide 38 (human)
# T11 peptide: Ac-IPAMKRSLAGRYR
# Procedure: as §1, §2
# peptide 110 = target: T12, peptide 110 (human)
# T12 peptide: Ac-SVAEFSEATAELT
# Procedure: as §1, §2
# peptide 15 = target: T13, peptide 15 (human)
# T13 construct: also called SLQALPSSLVPLE
# T13 peptide: Ac-SLQALPSSLVPLE
# Procedure: as §1, §2
# peptide 4 = target: T14, peptide 4 (human, cysteine pairing not given here)
# T14 peptide: Ac-ALFCLGLCLGRVP
# Procedure: as §1, §2
# peptide 3 = target: T15, peptide 3 (human, cysteine pairing not given here)
# T15 peptide: Ac-PTALFCLGLCLGR
# Procedure: as §1, §2
# peptide 19 = target: T16, peptide 19 (human)
# T16 peptide: Ac-LVPLEKPVTLRCQ
# Procedure: as §1, §2
# peptide 100 = target: T17, peptide 100 (human)
# T17 peptide: Ac-ELVVTGTSVTPSR
# Procedure: as §1, §2
# peptide 80 = target: T18, peptide 80 (human)
# T18 peptide: Ac-RWYRASFPIITVT
# Procedure: as §1, §2
# peptide 98 = target: T19, peptide 98 (human)
# T19 peptide: Ac-SDPLELVVTGTSV
# Procedure: as §1, §2
# peptide 106 = target: T20, peptide 106 (human)
# T20 peptide: Ac-RLPTEPPSSVAEF
# Procedure: as §1, §2
# peptide 124 = target: T21, peptide 124 (human)
# T21 peptide: Ac-ITTSPKESDSPAG
# Procedure: as §1, §2
# peptide 8 = target: T22, peptide 8 (human)
# T22 peptide: Ac-LGRVPAQSGPLPK
# Procedure: as §1, §2
# peptide 120 = target: T23, peptide 120 (human)
# T23 peptide: Ac-FTTETSRSITTSP
# Procedure: as §1, §2
# peptide 31 = target: T24, peptide 31 (human)
# T24 peptide: Ac-KLSSSRYQDQAVL
# Procedure: as §1, §2
# peptide 46 = target: T25, peptide 46 (human)
# T25 peptide: Ac-QNGSLWSLPSDQL
# Procedure: as §1, §2
# peptide 125 = target: T26, peptide 125 (human)
# T26 peptide: Ac-TSPKESDSPAGPA
# Procedure: as §1, §2
# peptide 42 = target: T27, peptide 42 (human)
# T27 peptide: Ac-AGRYRCSYQNGSL
# Procedure: as §1, §2
# peptide 91 = target: T28, peptide 91 (human)
# T28 peptide: Ac-YSFSSRDPYLWSA
# Procedure: as §1, §2
# peptide 76 = target: T29, peptide 76 (human)
# T29 peptide: Ac-PAPYKNPERWYRA
# Procedure: as §1, §2
# peptide 24 = target: T30, peptide 24 (human)
# T30 peptide: Ac-RCQGPPGVDLYRL
# Procedure: as §1, §2
# peptide 127 = target: T31, peptide 127 (human)
# T31 peptide: Ac-ESDSPAGPARQYY
# Procedure: as §1, §2
# peptide 131 = target: T32, peptide 131 (human)
# T32 peptide: Ac-ARQYYTKGNGGRE
# Procedure: as §1, §2
# peptide 37 = target: T33, peptide 37 (human)
# T33 peptide: Ac-LFIPAMKRSLAGR
# Procedure: as §1, §2
# peptide 17 = target: T34, peptide 17 (human)
# T34 peptide: Ac-LPSSLVPLEKPVT
# Procedure: as §1, §2
# peptide 57 = target: T35, peptide 57 (human)
# T35 peptide: Ac-KPSLSAQPGPAVS
# Procedure: as §1, §2
# peptide 18 = target: T36, peptide 18 (human)
# T36 peptide: Ac-SSLVPLEKPVTLR
# Procedure: as §1, §2
# peptide 96 = target: T37, peptide 96 (human)
# T37 peptide: Ac-WSAPSDPLELVVT
# Procedure: as §1, §2
# peptide 97 = target: T38, peptide 97 (human)
# T38 peptide: Ac-APSDPLELVVTGT
# Procedure: as §1, §2
# peptide 105 = target: T39, peptide 105 (human)
# T39 peptide: Ac-PSRLPTEPPSSVA
# Procedure: as §1, §2
# peptide 116 = target: T40, peptide 116 (human)
# T40 peptide: Ac-TVSFTNKVFTTET
# Procedure: as §1, §2
# peptide 65 = target: T41, peptide 65 (human)
# T41 peptide: Ac-DVTLQCQTRYGFD
# Procedure: as §1, §2
binder,measurement,setting,value
B1,LU (Light Units),peptide 101,211 LU
same,LU (Light Units),peptide 78,51 LU
same,LU (Light Units),peptide 30,184 LU
same,LU (Light Units),peptide 108,12 LU
same,LU (Light Units),peptide 122,195 LU
same,LU (Light Units),peptide 56,759 LU
same,LU (Light Units),peptide 83,75 LU
same,LU (Light Units),peptide 99,202 LU
same,LU (Light Units),peptide 114,226 LU
same,LU (Light Units),peptide 25,56 LU
same,LU (Light Units),peptide 38,1030 LU
same,LU (Light Units),peptide 110,71 LU
same,LU (Light Units),peptide 15,74 LU
same,LU (Light Units),peptide 4,5 LU
same,LU (Light Units),peptide 3,74 LU
same,LU (Light Units),peptide 19,157 LU
same,LU (Light Units),peptide 100,114 LU
same,LU (Light Units),peptide 80,184 LU
same,LU (Light Units),peptide 98,141 LU
same,LU (Light Units),peptide 106,2 LU
same,LU (Light Units),peptide 124,66 LU
same,LU (Light Units),peptide 8,794 LU
same,LU (Light Units),peptide 120,250 LU
same,LU (Light Units),peptide 31,211 LU
same,LU (Light Units),peptide 46,1 LU
same,LU (Light Units),peptide 125,25 LU
same,LU (Light Units),peptide 42,41 LU
same,LU (Light Units),peptide 91,67 LU
same,LU (Light Units),peptide 76,78 LU
same,LU (Light Units),peptide 24,28 LU
same,LU (Light Units),peptide 127,101 LU
same,LU (Light Units),peptide 131,289 LU
same,LU (Light Units),peptide 37,1120 LU
same,signal to noise ratio,peptide 37,~4 ratio
same,LU (Light Units),peptide 17,160 LU
same,LU (Light Units),peptide 57,128 LU
same,LU (Light Units),peptide 18,219 LU
same,LU (Light Units),peptide 96,210 LU
same,LU (Light Units),peptide 97,147 LU
same,LU (Light Units),peptide 105,33 LU
same,LU (Light Units),peptide 116,224 LU
same,LU (Light Units),peptide 65,26 LU
